Test results from paper PMC10409285 (PLOS Pathogens, 2023).
Where two headings read alike, the source gives them in different places.

How the values were obtained:
[1] = molecular target: Soluble DRB1*15:01 (human) (UniProt P01903); assay: fluorescence polarisation
[2] = molecular target: Soluble DRB5*01:01 (human) (UniProt P01903); assay: fluorescence polarisation
[3] = molecular target: Soluble DRB1*15:01 (human) (UniProt P01903)
[4] = molecular target: Soluble DP4 (HLA-DPA1*01:03/DPB1*04:01) (human)
A549 cells = details: cells treated with IFN-γ and trametinib (IFN-γ 100 ng/mL; trametinib 50 ng/mL, 50 nM)
[5] = molecular target: Soluble DP4 (HLA-DPA1*01:03/DPB1*04:01) (human); assay: fluorescence polarisation
DR2b (DRB1*15:01) = molecular target: T1, DR2b (DRB1*15:01) (Homo sapiens, UniProt P01903+P01911); assay: fluorescence polarization competition binding assay, DR2b; details: mean of two independent experiments
T1 construct: Soluble DRB1*15:01 and DRB5*01:01 with a covalently linked CLIP peptides; covalently linked CLIP peptide (3C-protease-cleavable linker) (cleaved yes); purchased NIH Tetramer Core Facility / Emory University (a gift of Drs. John Altman and Richard Willis, not bought)

DR2a (DRB5*01:01) = DR2a (DRB5*01:01) (Homo sapiens, UniProt P01903+Q30154); assay: fluorescence polarization competition binding assay, DR2a

P8, OC43 hemagglutinin esterase 93–107 (peptide)
IC50 [1]: < 1000 nM

P9, OC43 hemagglutinin esterase 128–142 (peptide)
IC50 [1]: < 1000 nM | IC50 [2]: < 1000 nM

P10, OC43 nucleoprotein 54–68 (peptide)
IC50 [3]: < 1000 nM

P12, OC43 spike 98–114 (peptide)
IC50 [2]: < 1000 nM | IC50 [3]: > 1000 nM

P2, OC43 nucleoprotein 321–336 (peptide)
IC50 [4]: > 10000 nM

CC(=O)Nc1cccc(-n2c(=O)n(C3CC3)c(=O)c3c(Nc4ccc(I)cc4F)n(C)c(=O)c(C)c32)c1 [trametinib]
MHC-II expression in A549 cells (A549 cells): small increase

P5, OC43 spike 760–773 (peptide)
IC50 [4]: < 1000 nM

P14, OC43 envelope 62–78 (peptide)
IC50 [4]: < 10000 nM

P11, OC43 spike 1085–1099 (peptide)
IC50 [3]: < 1000 nM

P1, OC43 hemagglutinin esterase 259–273 (peptide)
IC50 [5]: < 1000 nM

P3, OC43 spike 97–111 (peptide)
IC50 [4]: < 10000 nM

P4, OC43 spike 903–917 (peptide)
IC50 [4]: < 10000 nM

CC(C)C[C@H](NC(=O)[C@H](C)NC(=O)[C@@H](NC(=O)[C@@H](N)CC(C)C)[C@@H](C)O)C(=O)N[C@@H](CC(N)=O)C(=O)N[C@@H](C)C(=O)N[C@@H](Cc1ccc(O)cc1)C(=O)N[C@H](C(=O)N[C@@H](CO)C(=O)N[C@@H](CCC(N)=O)C(=O)N[C@@H](CCC(N)=O)C(=O)N[C@@H](CC(C)C)C(=O)N[C@@H](CO)C(=O)N[C@@H](CC(=O)O)C(=O)N[C@@H](CO)C(=O)O)C(C)C [Peptide P11]
IC50 (DR2b (DRB1*15:01)): 140 nM | IC50 (DR2a (DRB5*01:01)): 63500 nM

P6, OC43 spike 1140–1155 (peptide)
IC50 [4]: > 10000 nM

CC[C@H](C)[C@H](NC(=O)[C@H](CC(C)C)NC(=O)[C@H](CCC(N)=O)NC(=O)[C@H](CCC(N)=O)NC(=O)[C@@H](NC(=O)[C@@H](NC(=O)[C@H](Cc1ccc(O)cc1)NC(=O)[C@@H](NC(=O)[C@H](CCC(N)=O)NC(=O)[C@H](CC(C)C)NC(=O)[C@H](CO)NC(=O)[C@H](CCC(N)=O)NC(=O)[C@@H](N)CC(C)C)[C@@H](C)O)C(C)C)[C@@H](C)O)C(=O)N[C@@H](CCCNC(=N)N)C(=O)N[C@@H](C)C(=O)O [Peptide P11.CoV2]
IC50 (DR2b (DRB1*15:01)): 450 nM | IC50 (DR2a (DRB5*01:01); fluorescence polarization competition, […], mean of two independent experiments, read-out: Mean IC50, DR2a (DRB5*01:01)): 2180 nM

P7, OC43 spike 1147–1164 (peptide)
IC50 [4]: < 10000 nM
